Among the data in patent US20160185837A1, “GIP AND GLP-1 RECEPTOR DUAL-AGONISTS FOR THE TREATMENT OF DIABETES” (Medimmune Limited, priority 2013, published 2016) are cAMP EC50, cAMP EC50, 4.2% cyno serum albumin and cAMP EC50, hGIPr (C3) line values, retold here.

What all share (assay): cell-based or functional assay
The target of experiment [1] is human GLP-1 receptor (human) (UniProt P43220).
In another experiment the target is T1, rat GIP receptor (rat) (UniProt P43219).
T1 sequence (looked up): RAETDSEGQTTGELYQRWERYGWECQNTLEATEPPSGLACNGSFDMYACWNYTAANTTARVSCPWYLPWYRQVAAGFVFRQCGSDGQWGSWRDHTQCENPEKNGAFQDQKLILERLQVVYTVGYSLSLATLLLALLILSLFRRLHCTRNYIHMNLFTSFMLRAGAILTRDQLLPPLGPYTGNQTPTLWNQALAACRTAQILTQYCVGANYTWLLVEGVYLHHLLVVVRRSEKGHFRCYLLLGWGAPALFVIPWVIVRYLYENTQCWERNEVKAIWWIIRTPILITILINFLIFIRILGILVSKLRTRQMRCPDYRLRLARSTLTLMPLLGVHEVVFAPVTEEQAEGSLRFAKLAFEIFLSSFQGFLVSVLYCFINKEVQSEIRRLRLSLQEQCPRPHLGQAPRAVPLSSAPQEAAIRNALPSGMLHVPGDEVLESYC

Experiment [2] concerns the target T2, human GIP receptor (human) (UniProt P48546).
T2 sequence (looked up): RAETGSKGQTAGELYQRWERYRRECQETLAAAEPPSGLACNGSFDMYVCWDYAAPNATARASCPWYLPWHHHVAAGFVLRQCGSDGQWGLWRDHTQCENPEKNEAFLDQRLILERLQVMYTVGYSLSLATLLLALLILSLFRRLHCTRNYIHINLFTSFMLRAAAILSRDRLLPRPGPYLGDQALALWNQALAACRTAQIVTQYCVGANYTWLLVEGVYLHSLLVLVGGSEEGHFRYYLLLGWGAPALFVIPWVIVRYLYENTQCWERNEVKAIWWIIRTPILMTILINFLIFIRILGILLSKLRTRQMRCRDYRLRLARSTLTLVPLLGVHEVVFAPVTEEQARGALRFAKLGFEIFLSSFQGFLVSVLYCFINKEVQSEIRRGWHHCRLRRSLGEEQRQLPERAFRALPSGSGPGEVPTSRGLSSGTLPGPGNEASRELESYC

For experiment [3], the target named is human glucagon receptor (human) (UniProt P47871).
Chain of human glucagon receptor (human) (P47871 26-477): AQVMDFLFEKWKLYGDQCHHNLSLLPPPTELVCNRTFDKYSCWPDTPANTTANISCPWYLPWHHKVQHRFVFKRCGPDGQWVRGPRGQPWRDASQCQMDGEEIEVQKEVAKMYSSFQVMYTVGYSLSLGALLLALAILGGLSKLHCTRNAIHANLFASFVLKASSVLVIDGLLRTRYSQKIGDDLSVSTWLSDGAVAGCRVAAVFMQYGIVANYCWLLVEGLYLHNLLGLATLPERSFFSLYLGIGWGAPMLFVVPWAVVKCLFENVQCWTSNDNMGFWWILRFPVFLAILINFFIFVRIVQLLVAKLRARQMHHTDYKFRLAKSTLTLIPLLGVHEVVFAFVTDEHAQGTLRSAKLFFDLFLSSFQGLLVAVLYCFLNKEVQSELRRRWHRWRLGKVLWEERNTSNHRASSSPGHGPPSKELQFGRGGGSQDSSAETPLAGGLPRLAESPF
The target in experiment [4] is T3, mouse GIP receptor (mouse) (UniProt Q0P543).
T3 sequence (looked up): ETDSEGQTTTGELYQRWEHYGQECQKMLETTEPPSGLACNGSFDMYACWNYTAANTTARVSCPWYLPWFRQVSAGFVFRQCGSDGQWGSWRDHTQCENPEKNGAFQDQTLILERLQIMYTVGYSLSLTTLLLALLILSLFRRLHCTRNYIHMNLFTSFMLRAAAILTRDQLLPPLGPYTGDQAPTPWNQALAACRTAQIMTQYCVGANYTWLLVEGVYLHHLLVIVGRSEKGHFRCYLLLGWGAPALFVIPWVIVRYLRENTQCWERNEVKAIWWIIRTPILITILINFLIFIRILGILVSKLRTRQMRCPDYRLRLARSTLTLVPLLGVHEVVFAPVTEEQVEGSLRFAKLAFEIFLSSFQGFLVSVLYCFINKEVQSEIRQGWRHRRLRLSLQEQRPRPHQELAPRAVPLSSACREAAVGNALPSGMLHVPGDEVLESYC

In the next experiment the target is rat GLP-1 receptor (rat) (UniProt P32301).
Chain of rat GLP-1 receptor (rat) (P32301 22-463): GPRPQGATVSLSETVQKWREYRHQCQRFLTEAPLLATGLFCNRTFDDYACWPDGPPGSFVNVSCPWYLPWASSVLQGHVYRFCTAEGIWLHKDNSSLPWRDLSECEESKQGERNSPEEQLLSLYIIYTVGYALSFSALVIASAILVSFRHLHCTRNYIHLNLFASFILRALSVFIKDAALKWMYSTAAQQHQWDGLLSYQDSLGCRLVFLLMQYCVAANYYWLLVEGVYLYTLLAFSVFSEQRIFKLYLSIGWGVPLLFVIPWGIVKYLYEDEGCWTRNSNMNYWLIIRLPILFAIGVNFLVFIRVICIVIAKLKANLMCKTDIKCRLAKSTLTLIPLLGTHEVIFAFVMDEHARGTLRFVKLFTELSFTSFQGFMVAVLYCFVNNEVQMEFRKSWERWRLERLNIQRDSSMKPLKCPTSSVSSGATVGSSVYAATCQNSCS
The target in experiment [5] is mouse GLP-1 receptor (mouse) (UniProt O35659).
Chain of mouse GLP-1 receptor (mouse) (O35659 22-463): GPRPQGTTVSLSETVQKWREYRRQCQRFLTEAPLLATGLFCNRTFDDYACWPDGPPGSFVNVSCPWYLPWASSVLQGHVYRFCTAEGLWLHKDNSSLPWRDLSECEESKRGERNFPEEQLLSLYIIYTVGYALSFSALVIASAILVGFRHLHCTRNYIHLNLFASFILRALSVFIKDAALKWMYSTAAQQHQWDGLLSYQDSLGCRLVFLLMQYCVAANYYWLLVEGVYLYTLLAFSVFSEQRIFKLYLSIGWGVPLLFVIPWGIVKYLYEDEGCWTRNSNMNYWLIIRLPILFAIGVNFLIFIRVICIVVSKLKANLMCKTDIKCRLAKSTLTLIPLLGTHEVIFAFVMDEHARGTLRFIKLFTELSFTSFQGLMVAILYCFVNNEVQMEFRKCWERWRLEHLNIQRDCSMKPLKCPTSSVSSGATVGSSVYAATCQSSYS
Experiment [6] addresses cynomolgus monkey glucagon receptor (cynomolgus monkey).
The target of experiment [7] is cynomolgus monkey GLP-1 receptor (cynomolgus monkey) (UniProt F8V479).
Chain of cynomolgus monkey GLP-1 receptor (cynomolgus monkey) (F8V479 entry or part of it): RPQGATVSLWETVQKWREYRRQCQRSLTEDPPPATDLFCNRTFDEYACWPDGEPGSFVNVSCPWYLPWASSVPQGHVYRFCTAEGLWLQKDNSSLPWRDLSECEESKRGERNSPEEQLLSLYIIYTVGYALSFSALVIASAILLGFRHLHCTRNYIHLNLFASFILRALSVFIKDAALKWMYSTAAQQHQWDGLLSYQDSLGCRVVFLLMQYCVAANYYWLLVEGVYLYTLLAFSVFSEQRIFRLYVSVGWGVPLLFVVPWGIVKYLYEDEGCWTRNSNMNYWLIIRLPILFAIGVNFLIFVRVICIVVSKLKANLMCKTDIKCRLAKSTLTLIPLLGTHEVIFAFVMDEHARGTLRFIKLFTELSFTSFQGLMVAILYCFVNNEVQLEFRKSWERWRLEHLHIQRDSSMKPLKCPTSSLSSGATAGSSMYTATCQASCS

Ends that are not written are not given here.

Chain of human GLP-1 receptor (human) (P43220 24-463): as the sequence (F8V479 entry or part of it) above, with N112S, S120F, G202S, V205L, F237L, R241W, V249I counted along it

B1: IP329 (Fc fusion)
chain: YSEGTFTSDYSKLLERQAIDEFIAELLKGGGGGGGSGGGGSGGGGSGGGGSGGGGSGGGGSA
In the case of B1, the cAMP EC50 is 1.4 nM in experiment [1]; 0.06 nM with rat GIP receptor (rat); 0.011 nM in experiment [2]; above 1430 nM in [3]; 2.6 nM in experiment [4]; 0.18 nM with rat GLP-1 receptor (rat). In experiment [5], this molecule gave a cAMP EC50 of 9 nM.

B2: IP301 (Fc fusion)
chain: YSEGTFTSDVSSYLEREAIDEFIAWLLKGGAAAGGSGSTASSGSGSATGGGGAATHTCPPC
B2: the cAMP EC50 in experiment [1] amounted to 0.31 nM; in the experiment with rat GIP receptor (rat), 4.7 nM; in experiment [2], 0.12 nM; in experiment [3], 12000 nM; in [4], 22 nM; with rat GLP-1 receptor (rat) it was 0.058 nM. In addition, in experiment [5], the cAMP EC50 is 1.9 nM.

B3: IP306 (Fc fusion)
chain: YSEGTFTSDYSKLLERQAIDEFIAWLLKGGAAAGGSGSTASSGSGSATGGGGAATHTCPPC
Turning to B3, the cAMP EC50 was found to be 0.1 nM in [1]; 0.026 nM with rat GIP receptor (rat); 0.011 nM in [2]; 220 nM in experiment [3]; 0.25 nM in experiment [4]; 0.015 nM with rat GLP-1 receptor (rat). Moreover, the cAMP EC50 in experiment [5] was 0.25 nM.

B4: IP310 (Fc fusion)
chain: YSEGTFTSDVSSYMERQAIDEFIAWLLKGKAAAGGSGSTASSGSGSATGGGGAATHTCPPC
As for B4, the cAMP EC50 in experiment [1] is 0.35 nM; with rat GIP receptor (rat) it was 5.2 nM; in experiment [2] it was 0.15 nM; in experiment [3], 3700 nM; in experiment [4], 31 nM; with rat GLP-1 receptor (rat) it was 0.038 nM. This molecule also returned a cAMP EC50 in [5] of 1.4 nM.

B5: IP307 (Fc fusion)
chain: YSEGTFTSDVSSYMERQAIDEFIAWLLKQGAAAGGSGSTASSGSGSATGGGGAATHTCPPC
For B5, the cAMP EC50 in experiment [1] was found to be 1.6 nM; with rat GIP receptor (rat), 5.2 nM; in [2], 0.091 nM; in experiment [3] it was 4100 nM; in experiment [4], 31 nM; with rat GLP-1 receptor (rat), 0.21 nM. For the same molecule, the cAMP EC50 in [5] amounted to 6.5 nM.

B6: IP315 (Fc fusion)
chain: YSEGTFISDYSSYLERQAIDEFIAWLLKGGAAAGGSGSTASSGSGSATGGGGAATHTCPPC
Consider B6, for which the cAMP EC50 in experiment [1] was above 5460 nM; with rat GIP receptor (rat) it was 0.096 nM; in [2], 0.024 nM; in experiment [3], 280 nM; in [4] it was 0.36 nM; with rat GLP-1 receptor (rat) it was 13 nM. Further, the cAMP EC50 in experiment [5] was above 5460 nM.

B7: IP312 (Fc fusion)
chain: YSEGTFISDVSSYMERQAIDEFIAWLLKGGAAAGGSGSTASSGSGSATGGGGAATHTCPPC
As for B7, the cAMP EC50 in experiment [1] is above 5310 nM; with rat GIP receptor (rat) it was 1.2 nM; in experiment [2], 0.048 nM; in experiment [3], above 5310 nM; in [4] it was 16 nM; with rat GLP-1 receptor (rat), 5.4 nM. The cAMP EC50 in experiment [5] is above 1060 nM.

B8: IP309 (Fc fusion)
chain: YSEGTFISDVSSYLERQAIDEFIAWLLKGGAAAGGSGSTASSGSGSATGGGGAATHTCPPC
B8: the cAMP EC50 turned out to be 7.7 nM in experiment [1]; 1.3 nM with rat GIP receptor (rat); 0.086 nM in experiment [2]; 900 nM in experiment [3]; 15 nM in experiment [4]; 1.7 nM in the experiment with rat GLP-1 receptor (rat). In [5], this molecule registered a cAMP EC50 of 16 nM.

B9: IP339 (Fc fusion)
chain: YSEGTFTSDYSKLLEKEAQRLFIEWLLAGGGGGGGSGGGGSGGGGSGGGGSGGGGSGGGGSA
Take B9: the cAMP EC50 in experiment [1] worked out at 0.18 nM; with rat GIP receptor (rat) it was 0.012 nM; in [2], 0.0098 nM; in [3], 23 nM; in experiment [4] it was 0.091 nM; with rat GLP-1 receptor (rat), 0.05 nM. Also, the cAMP EC50 in [5] was 1.6 nM.

On to HGEGTFTSDVSSYLEEQAAKEFIAWLVKGR (Fc fusion, not shown: a dimerising Fc or GST, also: fused to linker, hinge and IgG4 Fc (not given here)) [GLP-1 analogue-Fc (gamma4) fusion control], for which the cAMP EC50, 4.2% cyno serum albumin in [6] was above 1000 nM; in [7], 0.011 nM.

B10: IP299 (Fc fusion)
chain: YSEGTFISDYSKLLEEEAVRDFVEWLKAGGGGGGGSGGGGSGGGGSGGGGSATHTCPPC
Regarding B10, the cAMP EC50 is above 3640 nM in [1]; 0.11 nM with rat GIP receptor (rat); 0.021 nM in experiment [2]; 53 nM in experiment [3]; 210 nM in experiment [4]; 19 nM with rat GLP-1 receptor (rat). In addition, the cAMP EC50 in experiment [5] was above 3640 nM.

B11: IP289 (Fc fusion)
chain: YSEGTFTSDYSKLLEKEAERLFIEWLLKGPGGGGGSGGGGSGGGGSGGGGSATHTCPPC
Take B11: the cAMP EC50 in [1] is 3.4 nM; with rat GIP receptor (rat), 0.02 nM; in experiment [2], 0.01 nM; in experiment [3] it was 240 nM; in experiment [4] it was 0.44 nM; in the experiment with rat GLP-1 receptor (rat), 0.23 nM. The same molecule had a cAMP EC50 in [5] of 6.8 nM.

B12: IP359 (Fc fusion)
chain: YSEGTFTSDYSKLLEEEAVRLFIEHLLAGGGGGGSGGGGSGGGGSGGGGSATHTCPPC
On to B12, for which the cAMP EC50 in [1] was 0.061 nM; in the experiment with rat GIP receptor (rat), 0.039 nM; in experiment [2], 0.011 nM; in experiment [3], 43 nM; in [4], 8.3 nM; with rat GLP-1 receptor (rat), 0.04 nM. This molecule came in with a cAMP EC50 in experiment [5] of 0.2 nM.

B13: IP412 (Fc fusion)
chain: YSEGTFTSDYSKLLEEEANRLFIEWLLAGGGGGGSGGGGSGGGGSGGGGSATHTCPPC
B13: the cAMP EC50 was 0.073 nM in experiment [1]; 0.018 nM with rat GIP receptor (rat); above 440 nM in experiment [3]; 0.4 nM in experiment [4]; 0.022 nM in the experiment with rat GLP-1 receptor (rat); 1.2 nM in experiment [5]. The molecule also yielded a cAMP EC50, hGIPr (C3) line in experiment [2] of 1.3 nM.

B14: IP381 (Fc fusion)
chain: YSEGTFTSDYSKLLEEEAVRLFIEYLLAGGGGGGSGGGGSGGGGSGGGGSATHTCPPC
Take B14: the cAMP EC50 in experiment [1] came out at 0.091 nM; in the experiment with rat GIP receptor (rat), 0.045 nM; in [2], 0.0099 nM; in [3] it was 18 nM; in experiment [4], 5.4 nM; in the experiment with rat GLP-1 receptor (rat) it was 0.027 nM. Moreover, the cAMP EC50 in experiment [5] is 0.73 nM.

B15: IP380 (Fc fusion)
chain: YSEGTFTSDYSKLLEEEAVRLFIEFLLAGGGGGGSGGGGSGGGGSGGGGSATHTCPPC
In the case of B15, the cAMP EC50 in experiment [1] is 0.11 nM; in the experiment with rat GIP receptor (rat) it was 0.06 nM; in [2], 0.0084 nM; in experiment [3], 25 nM; in experiment [4] it was 6.6 nM; with rat GLP-1 receptor (rat) it was 0.031 nM. Also, the cAMP EC50 in [5] turned out to be 1.2 nM.
